Assay results published in publication PMC9482650, “Quantitative fragmentomics allow affinity mapping of interactomes” (Nature Communications, 2022).

Tests used:
Assay in all cases: holdup assay
Design in all cases: key: below the threshold = too weak to quantify, mostly under pKd 3.1 to 4
DFNB31_1, Q9P202 = target: T1, DFNB31_1, Q9P202
T1 sequence (Q9P202 135-233, limits assumed, looked up): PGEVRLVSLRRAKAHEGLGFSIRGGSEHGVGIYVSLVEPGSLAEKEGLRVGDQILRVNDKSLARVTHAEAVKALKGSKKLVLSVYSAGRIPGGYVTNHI

FRMPD3, Q5JV73 = target: FRMPD3, Q5JV73
ARHGEF11, O15085 = target: T2, ARHGEF11, O15085
T2 sequence (O15085 42-136, limits assumed, looked up): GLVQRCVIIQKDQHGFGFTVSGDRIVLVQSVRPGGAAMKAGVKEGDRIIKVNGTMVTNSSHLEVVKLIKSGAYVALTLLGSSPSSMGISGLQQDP

IL16_1, Q14005 = target: IL16_1, Q14005
MAST2, Q6P0Q8 = target: MAST2, Q6P0Q8
DLG4_2, P78352 = target: DLG4_2, P78352
NHERF4_4, Q86UT5 = target: NHERF4_4, Q86UT5
DLG3_1, Q92796 = target: T3, DLG3_1, Q92796
T3 sequence (Q92796 125-227, limits assumed, looked up): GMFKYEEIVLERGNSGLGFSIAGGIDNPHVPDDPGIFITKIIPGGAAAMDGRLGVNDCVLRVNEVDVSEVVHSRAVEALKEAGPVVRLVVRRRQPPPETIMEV

SNX27, Q96L92 = target: SNX27, Q96L92
LNX1_2, Q8TBB1 = target: LNX1_2, Q8TBB1
MAGI3_2, Q5TCQ9 = target: MAGI3_2, Q5TCQ9
LRRC7, Q96NW7 = target: T4, LRRC7, Q96NW7
T4 sequence (Q96NW7 1440-1537, limits assumed, looked up): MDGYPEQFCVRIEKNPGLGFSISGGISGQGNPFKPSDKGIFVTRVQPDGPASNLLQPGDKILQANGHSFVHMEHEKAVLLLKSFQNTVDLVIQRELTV

PARD3_3, Q8TEW0 = target: PARD3_3, Q8TEW0
GRIP2_4, Q9C0E4 = target: GRIP2_4, Q9C0E4
PDZD2_2, O15018 = target: T5, PDZD2_2, O15018
T5 sequence (O15018 329-429, limits assumed, looked up): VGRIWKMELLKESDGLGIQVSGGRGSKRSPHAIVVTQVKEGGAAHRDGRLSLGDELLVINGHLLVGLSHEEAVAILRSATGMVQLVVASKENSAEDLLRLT

IL16_4, Q14005 = target: IL16_4, Q14005
APBA3_1, O96018 = target: T6, APBA3_1, O96018
T6 sequence (O96018 389-490, limits assumed, looked up): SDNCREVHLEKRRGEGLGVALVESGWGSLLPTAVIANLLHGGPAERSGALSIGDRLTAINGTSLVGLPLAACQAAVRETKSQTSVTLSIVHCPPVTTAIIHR

HTRA3, P83110 = target: T7, HTRA3, P83110
T7 sequence (P83110 354-453, limits assumed, looked up): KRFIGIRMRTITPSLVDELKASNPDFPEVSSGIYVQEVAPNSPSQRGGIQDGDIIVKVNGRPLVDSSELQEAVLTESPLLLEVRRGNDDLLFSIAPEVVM

SCRIB_1, Q14160 = target: SCRIB_1, Q14160
SYNJ2BP, P57105 = target: T8, SYNJ2BP, P57105
T8 sequence (P57105 8-110, limits assumed, looked up): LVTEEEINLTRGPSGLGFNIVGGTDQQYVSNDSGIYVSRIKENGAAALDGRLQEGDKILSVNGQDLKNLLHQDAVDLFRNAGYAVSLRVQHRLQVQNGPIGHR

TJP2_1, Q9UDY2 = target: TJP2_1, Q9UDY2
GRID2IP_2, A4D2P6 = target: GRID2IP_2, A4D2P6
GRIP1_4, Q9Y3R0 = target: T9, GRIP1_4, Q9Y3R0
T9 sequence (Q9Y3R0 467-571, limits assumed, looked up): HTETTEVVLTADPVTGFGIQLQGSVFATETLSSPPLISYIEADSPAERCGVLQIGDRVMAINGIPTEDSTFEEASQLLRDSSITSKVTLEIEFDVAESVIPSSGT

GRIP2_6, Q9C0E4 = target: GRIP2_6, Q9C0E4
LNX2_3, Q8N448 = target: T10, LNX2_3, Q8N448
T10 sequence (Q8N448 463-564, limits assumed, looked up): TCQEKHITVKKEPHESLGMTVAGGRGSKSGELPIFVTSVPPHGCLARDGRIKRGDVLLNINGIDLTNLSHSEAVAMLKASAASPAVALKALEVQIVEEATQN

PTPN3, P26045 = target: PTPN3, P26045
MAGI1_1, Q96QZ7 = target: MAGI1_1, Q96QZ7
[1] = plain residues with an end cap or a label only (N-terminal biotin on a linker: ttds)
[2] = plain residues with an end cap or a label only (N-terminal biotin on a linker: ahx)

Sequence of DLG4_2, P78352 (P78352 155-259): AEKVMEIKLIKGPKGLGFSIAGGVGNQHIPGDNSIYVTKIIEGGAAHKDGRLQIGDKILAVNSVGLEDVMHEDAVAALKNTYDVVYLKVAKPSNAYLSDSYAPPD
Sequence of LNX1_2, Q8TBB1 (Q8TBB1 371-470): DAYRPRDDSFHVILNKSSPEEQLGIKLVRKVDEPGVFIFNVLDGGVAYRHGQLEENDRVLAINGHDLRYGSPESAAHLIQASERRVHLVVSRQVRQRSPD
Sequence of MAGI1_1, Q96QZ7 (Q96QZ7 1-106): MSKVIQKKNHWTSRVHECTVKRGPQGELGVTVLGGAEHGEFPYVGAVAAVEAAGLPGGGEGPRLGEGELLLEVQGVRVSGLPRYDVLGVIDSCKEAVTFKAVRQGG
Sequence of IL16_1, Q14005 (Q14005 210-306): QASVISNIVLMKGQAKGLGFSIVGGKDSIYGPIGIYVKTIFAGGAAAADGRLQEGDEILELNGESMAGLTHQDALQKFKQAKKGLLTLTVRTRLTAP
Sequence of PTPN3, P26045 (P26045 505-587): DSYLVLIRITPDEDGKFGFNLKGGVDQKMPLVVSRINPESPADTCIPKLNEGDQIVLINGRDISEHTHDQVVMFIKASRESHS
Sequence of IL16_4, Q14005 (Q14005 1229-1329): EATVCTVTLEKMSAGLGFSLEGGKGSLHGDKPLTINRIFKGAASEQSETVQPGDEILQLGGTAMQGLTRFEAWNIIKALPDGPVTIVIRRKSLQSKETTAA
Sequence of GRID2IP_2, A4D2P6 (A4D2P6 272-370): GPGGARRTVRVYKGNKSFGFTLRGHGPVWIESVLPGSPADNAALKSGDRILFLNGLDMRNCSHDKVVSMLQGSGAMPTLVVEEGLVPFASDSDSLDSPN
Sequence of FRMPD3, Q5JV73 (Q5JV73 12-100): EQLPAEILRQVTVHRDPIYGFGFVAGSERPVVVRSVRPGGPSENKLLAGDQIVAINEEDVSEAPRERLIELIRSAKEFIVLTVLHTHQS
Sequence of GRIP2_4, Q9C0E4 (Q9C0E4 446-548): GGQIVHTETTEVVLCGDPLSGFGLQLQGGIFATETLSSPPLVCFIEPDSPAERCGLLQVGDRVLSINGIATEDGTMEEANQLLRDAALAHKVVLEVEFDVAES
Sequence of SCRIB_1, Q14160 (Q14160 718-814): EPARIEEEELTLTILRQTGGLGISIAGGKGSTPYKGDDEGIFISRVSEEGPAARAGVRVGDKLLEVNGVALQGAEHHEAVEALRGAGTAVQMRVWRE
Sequence of MAST2, Q6P0Q8 (Q6P0Q8 1099-1202): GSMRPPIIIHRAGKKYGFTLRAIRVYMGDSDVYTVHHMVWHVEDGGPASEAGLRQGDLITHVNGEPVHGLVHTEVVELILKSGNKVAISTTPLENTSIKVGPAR
Sequence of MAGI3_2, Q5TCQ9 (Q5TCQ9 398-503): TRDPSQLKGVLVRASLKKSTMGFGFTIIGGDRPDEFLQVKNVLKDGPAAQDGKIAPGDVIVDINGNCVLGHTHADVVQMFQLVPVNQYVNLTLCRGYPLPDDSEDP
Sequence of NHERF4_4, Q86UT5 (Q86UT5 464-550): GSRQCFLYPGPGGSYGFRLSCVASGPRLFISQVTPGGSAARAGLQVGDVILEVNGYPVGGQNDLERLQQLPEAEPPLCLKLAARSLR
Sequence of TJP2_1, Q9UDY2 (Q9UDY2 24-128): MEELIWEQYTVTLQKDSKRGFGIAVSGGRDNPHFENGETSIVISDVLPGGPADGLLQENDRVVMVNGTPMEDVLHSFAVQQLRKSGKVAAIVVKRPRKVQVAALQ
Sequence of GRIP2_6, Q9C0E4 (Q9C0E4 648-740): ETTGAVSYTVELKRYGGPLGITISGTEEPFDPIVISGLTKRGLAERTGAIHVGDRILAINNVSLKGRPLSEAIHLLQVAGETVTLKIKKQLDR
Sequence of PARD3_3, Q8TEW0 (Q8TEW0 582-685): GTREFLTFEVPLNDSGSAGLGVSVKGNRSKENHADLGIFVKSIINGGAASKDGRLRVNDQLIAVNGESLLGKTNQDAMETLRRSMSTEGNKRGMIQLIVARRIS

Binder: SPLHSLETSL [ATP2B1, P20020]
- pKd (DFNB31_1, Q9P202; [1]): 4.22
- pKd (FRMPD3, Q5JV73; [1]): 3.59
- pKd (ARHGEF11, O15085; [1]): 4.27
- pKd (IL16_1, Q14005; [1]): below the threshold
- pKd (MAST2, Q6P0Q8; [1]): 5.88
- pKd (DLG4_2, P78352; [1]): 4.15
- pKd (NHERF4_4, Q86UT5; [1]): below the threshold
- pKd (DLG3_1, Q92796; [1]): 3.62
- pKd (SNX27, Q96L92; [1]): 5.48
- pKd (LNX1_2, Q8TBB1; [1]): below the threshold
- pKd (MAGI3_2, Q5TCQ9; [1]): 3.69
- pKd (LRRC7, Q96NW7; [1]): 3.58
- pKd (PARD3_3, Q8TEW0; [1]): 3.82
- pKd (GRIP2_4, Q9C0E4; [1]): below the threshold
- pKd (PDZD2_2, O15018; [1]): below the threshold
- pKd (IL16_4, Q14005; [1]): below the threshold
- pKd (APBA3_1, O96018; [1]): 3.47
- pKd (HTRA3, P83110; [1]): below the threshold
- pKd (SCRIB_1, Q14160; [1]): 5.36
- pKd (SYNJ2BP, P57105; [1]): 4.91
- pKd (TJP2_1, Q9UDY2; [1]): 3.49
- pKd (GRID2IP_2, A4D2P6; [1]): 4.17
- pKd (GRIP1_4, Q9Y3R0; [1]): below the threshold
- pKd (GRIP2_6, Q9C0E4; [1]): below the threshold
- pKd (LNX2_3, Q8N448; [1]): below the threshold
- pKd (PTPN3, P26045; [1]): 4.95
- pKd (MAGI1_1, Q96QZ7; [1]): below the threshold

Binder: KTSAHHATFV [RGS12, O14924]
- pKd (DFNB31_1, Q9P202; [2]): 3.61
- pKd (FRMPD3, Q5JV73; [2]): below the threshold
- pKd (ARHGEF11, O15085; [2]): 3.6
- pKd (IL16_1, Q14005; [2]): below the threshold
- pKd (MAST2, Q6P0Q8; [2]): 4.33
- pKd (DLG4_2, P78352; [2]): 4.13
- pKd (NHERF4_4, Q86UT5; [2]): below the threshold
- pKd (DLG3_1, Q92796; [2]): below the threshold
- pKd (SNX27, Q96L92; [2]): 4.05
- pKd (LNX1_2, Q8TBB1; [2]): 3.54
- pKd (MAGI3_2, Q5TCQ9; [2]): 4.72
- pKd (LRRC7, Q96NW7; [2]): 3.59
- pKd (PARD3_3, Q8TEW0; [2]): below the threshold
- pKd (GRIP2_4, Q9C0E4; [2]): below the threshold
- pKd (PDZD2_2, O15018; [2]): 5.04
- pKd (IL16_4, Q14005; [2]): below the threshold
- pKd (APBA3_1, O96018; [2]): below the threshold
- pKd (HTRA3, P83110; [2]): 4.42
- pKd (SCRIB_1, Q14160; [2]): 3.8
- pKd (SYNJ2BP, P57105; [2]): 4.26
- pKd (TJP2_1, Q9UDY2; [2]): 4.45
- pKd (GRID2IP_2, A4D2P6; [2]): 4.27
- pKd (GRIP1_4, Q9Y3R0; [2]): below the threshold
- pKd (GRIP2_6, Q9C0E4; [2]): below the threshold
- pKd (LNX2_3, Q8N448; [2]): below the threshold
- pKd (PTPN3, P26045; [2]): 3.92
- pKd (MAGI1_1, Q96QZ7; [2]): below the threshold

Binder: IQREDQETAV [DGKZ, Q13574]
- pKd (DFNB31_1, Q9P202; [1]): 4.81
- pKd (FRMPD3, Q5JV73; [1]): below the threshold
- pKd (ARHGEF11, O15085; [1]): 4.47
- pKd (IL16_1, Q14005; [1]): 4.38
- pKd (MAST2, Q6P0Q8; [1]): 5.76
- pKd (DLG4_2, P78352; [1]): 4.96
- pKd (NHERF4_4, Q86UT5; [1]): below the threshold
- pKd (DLG3_1, Q92796; [1]): 4.26
- pKd (SNX27, Q96L92; [1]): 6
- pKd (LNX1_2, Q8TBB1; [1]): below the threshold
- pKd (MAGI3_2, Q5TCQ9; [1]): 4.85
- pKd (LRRC7, Q96NW7; [1]): below the threshold
- pKd (PARD3_3, Q8TEW0; [1]): below the threshold
- pKd (GRIP2_4, Q9C0E4; [1]): below the threshold
- pKd (PDZD2_2, O15018; [1]): 5.1
- pKd (IL16_4, Q14005; [1]): below the threshold
- pKd (APBA3_1, O96018; [1]): below the threshold
- pKd (HTRA3, P83110; [1]): below the threshold
- pKd (SCRIB_1, Q14160; [1]): 4.71
- pKd (SYNJ2BP, P57105; [1]): 5.31
- pKd (TJP2_1, Q9UDY2; [1]): below the threshold
- pKd (GRID2IP_2, A4D2P6; [1]): 3.98
- pKd (GRIP1_4, Q9Y3R0; [1]): below the threshold
- pKd (GRIP2_6, Q9C0E4; [1]): below the threshold
- pKd (LNX2_3, Q8N448; [1]): below the threshold
- pKd (PTPN3, P26045; [1]): 5.12
- pKd (MAGI1_1, Q96QZ7; [1]): below the threshold

Binder: MERLRVETDV [ARHGEF16, Q5VV41]
- pKd (DFNB31_1, Q9P202; [1]): below the threshold
- pKd (FRMPD3, Q5JV73; [1]): below the threshold
- pKd (ARHGEF11, O15085; [1]): 4.21
- pKd (IL16_1, Q14005; [1]): below the threshold
- pKd (MAST2, Q6P0Q8; [1]): 5.56
- pKd (DLG4_2, P78352; [1]): 5.44
- pKd (NHERF4_4, Q86UT5; [1]): below the threshold
- pKd (DLG3_1, Q92796; [1]): 4.59
- pKd (SNX27, Q96L92; [1]): 4.17
- pKd (LNX1_2, Q8TBB1; [1]): 3.62
- pKd (MAGI3_2, Q5TCQ9; [1]): 4.6
- pKd (LRRC7, Q96NW7; [1]): 3.81
- pKd (PARD3_3, Q8TEW0; [1]): below the threshold
- pKd (GRIP2_4, Q9C0E4; [1]): below the threshold
- pKd (PDZD2_2, O15018; [1]): 4.33
- pKd (IL16_4, Q14005; [1]): below the threshold
- pKd (APBA3_1, O96018; [1]): below the threshold
- pKd (HTRA3, P83110; [1]): below the threshold
- pKd (SCRIB_1, Q14160; [1]): 4.58
- pKd (SYNJ2BP, P57105; [1]): 4.8
- pKd (TJP2_1, Q9UDY2; [1]): below the threshold
- pKd (GRID2IP_2, A4D2P6; [1]): 3.57
- pKd (GRIP1_4, Q9Y3R0; [1]): below the threshold
- pKd (GRIP2_6, Q9C0E4; [1]): below the threshold
- pKd (LNX2_3, Q8N448; [1]): below the threshold
- pKd (PTPN3, P26045; [1]): 4.38
- pKd (MAGI1_1, Q96QZ7; [1]): below the threshold
